{"source": "patent US20230133118A1", "about": "“COMPOSITIONS AND METHODS FOR TREATING CANCER” (Adagene AG, priority 2020, published 2023)", "key": {"[1]": {"test": "Clinical immunogenicity, anti-drug antibody (ADA) immunoassay", "format": "in vivo, human", "protocol": "Blood samples were collected as described in the PK analysis. The anti-drug-antibody (ADA) to ADG106 in human serum was measured using a validated Affinity Capture and Elution (ACE) based immunoassay. All samples were first analyzed for ADAs in a screening assay. Study samples with results below the screening cut-off were reported as negative for ADAs. In the event of a positive result in the screening assay, samples were analyzed in the confirmatory assay. All samples confirmed positive were reported as positive."}, "[2]": {"test_system": "L5178-R murine T cell lymphoma", "test": "L5178-R murine T cell lymphoma syngeneic model", "format": "in vivo, DBA/2 mice", "settings": "20 mg/kg i.p. once every 3 days", "text": "The animals were randomized and treatment started when tumor volumes reach 50-80 mm^3, or on the day of cell inoculation (FIGS. 17A and 17C). Each group consisted of 8 tumor-bearing mice. […] Tumor growth and animal body weight were monitored every 2-3 days."}, "Lewis lung cancer cells": {"test_system": "Lewis lung cancer cells", "test": "Lewis lung cancer model, ADG106 with cisplatin", "format": "in vivo, C57BL/6 mice", "settings": "5 mg/kg i.p.", "from_the_text": "C57BL/6 mice (n=8 per group, female, 6-8 weeks old) were transplanted subcutaneously with 5×10^5 Lewis lung cancer cells. […] Tumor growth was monitored twice weekly and reported as mean tumor volume ±SEM over time."}, "[3]": {"target": "CD137 / CD137 ligand (4-1BBL) (Homo sapiens, UniProt Q07011)", "sequence (Q07011 24-255)": "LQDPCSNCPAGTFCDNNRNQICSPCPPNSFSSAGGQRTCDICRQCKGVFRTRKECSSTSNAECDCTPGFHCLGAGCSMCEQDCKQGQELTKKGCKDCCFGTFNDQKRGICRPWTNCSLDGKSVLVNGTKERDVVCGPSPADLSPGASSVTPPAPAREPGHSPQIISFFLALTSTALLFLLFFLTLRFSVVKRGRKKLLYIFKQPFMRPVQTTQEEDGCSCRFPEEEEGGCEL", "test": "Blocking of CD137 / CD137 ligand interaction", "format": "binding", "text": "This was expected given that CD137 is known to function as a co-stimulatory T cell receptor. […] This property might prevent the potential of dual independent activation of CD137 potentially accounting for its distinct pharmacology and toxicology profile among this class of therapeutic antibodies."}, "C1q, human FcγR1": {"test_system": "C1q, human FcγR1", "test": "C1q and FcγR1 binding, NK cell ADCC on activated human CD8+ T cells"}}}
{"substance": "ADG106: fully human agonistic anti-CD137 monoclonal IgG4 antibody; heavy chain SEQ ID NO: 10, light chain SEQ ID NO: 11", "values": [{"measurement": "treatment emergent or boosted ADA", "setting": "[1]; Chinese patients tested so far", "result": "5 of 23"}, {"measurement": "patients with treatment-induced anti-drug antibodies", "setting": "[1]; patients tested", "result": "about 20%"}, {"measurement": "antitumor activity", "setting": "[2]", "result": "resistant to ADG106 treatment"}, {"measurement": "anti-tumor activity, monotherapy", "setting": "Lewis lung cancer cells", "result": "showed anti-tumor activity"}, {"measurement": "blocking of the interaction of CD137 to the CD137 ligand (4-1BBL)", "setting": "[3]", "result": "fully blocks"}, {"measurement": "C1q binding", "setting": "C1q, human FcγR1", "result": "unable to bind C1 q"}, {"measurement": "binding affinity for human FcγR1 protein", "setting": "C1q, human FcγR1", "result": "low binding affinity"}, {"measurement": "NK cell antibody-dependent cell-mediated cytotoxicity on activated human CD8+ T cells", "setting": "C1q, human FcγR1; human whole cell assays", "result": "did not show detectable"}]}
